Here are results for three molecules from paper PMC4635569, “Complement Evasion Mediated by Enhancement of Captured Factor H: Implications for Protection of Self-Surfaces from Complement” (The Journal of Immunology Author Choice, 2015).

In this experiment the target is T1, human C3b (human, UniProt P01024 23-667; P01024 749-1663).
T1 construct: Amine coupled to the SPR chips (C1 or CM5); source: bought: Complement Technologies, plasma-derived, used without further purification
As to the kind of experiment: SPR; C3b (~250 RU) or C3d (~70 RU) amine coupled to adjacent flow cells of a Biacore C1 chip; FH preincubated with or without a 2-fold molar excess of PspCN injected (90 s, 30 μl/min, 400 s dissociation); 1:1 binding model. The settings on record: both partners purified. On the technique in general: In SPR one partner is held on a chip, and binding of the other changes the refractive index at the surface.

T1 sequence (P01024 23-667, chain 1 of 2): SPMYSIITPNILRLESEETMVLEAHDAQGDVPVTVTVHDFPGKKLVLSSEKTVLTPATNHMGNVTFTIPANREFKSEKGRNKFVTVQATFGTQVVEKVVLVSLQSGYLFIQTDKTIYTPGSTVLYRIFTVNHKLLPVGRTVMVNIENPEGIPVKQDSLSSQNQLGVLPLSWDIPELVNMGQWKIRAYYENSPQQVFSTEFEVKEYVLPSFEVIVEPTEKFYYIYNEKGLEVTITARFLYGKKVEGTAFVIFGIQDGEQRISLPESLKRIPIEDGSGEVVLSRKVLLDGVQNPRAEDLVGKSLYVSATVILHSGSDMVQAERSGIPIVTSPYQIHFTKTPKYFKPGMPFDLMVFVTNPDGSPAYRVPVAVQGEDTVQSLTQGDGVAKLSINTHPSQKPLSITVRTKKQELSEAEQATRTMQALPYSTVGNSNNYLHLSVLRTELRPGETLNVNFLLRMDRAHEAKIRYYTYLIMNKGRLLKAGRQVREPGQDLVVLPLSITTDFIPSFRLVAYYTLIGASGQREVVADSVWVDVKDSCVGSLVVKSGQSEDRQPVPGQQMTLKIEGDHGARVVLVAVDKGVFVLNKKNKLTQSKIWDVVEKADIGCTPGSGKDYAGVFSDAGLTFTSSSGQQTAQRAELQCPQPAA
T1 sequence (P01024 749-1663, chain 2 of 2): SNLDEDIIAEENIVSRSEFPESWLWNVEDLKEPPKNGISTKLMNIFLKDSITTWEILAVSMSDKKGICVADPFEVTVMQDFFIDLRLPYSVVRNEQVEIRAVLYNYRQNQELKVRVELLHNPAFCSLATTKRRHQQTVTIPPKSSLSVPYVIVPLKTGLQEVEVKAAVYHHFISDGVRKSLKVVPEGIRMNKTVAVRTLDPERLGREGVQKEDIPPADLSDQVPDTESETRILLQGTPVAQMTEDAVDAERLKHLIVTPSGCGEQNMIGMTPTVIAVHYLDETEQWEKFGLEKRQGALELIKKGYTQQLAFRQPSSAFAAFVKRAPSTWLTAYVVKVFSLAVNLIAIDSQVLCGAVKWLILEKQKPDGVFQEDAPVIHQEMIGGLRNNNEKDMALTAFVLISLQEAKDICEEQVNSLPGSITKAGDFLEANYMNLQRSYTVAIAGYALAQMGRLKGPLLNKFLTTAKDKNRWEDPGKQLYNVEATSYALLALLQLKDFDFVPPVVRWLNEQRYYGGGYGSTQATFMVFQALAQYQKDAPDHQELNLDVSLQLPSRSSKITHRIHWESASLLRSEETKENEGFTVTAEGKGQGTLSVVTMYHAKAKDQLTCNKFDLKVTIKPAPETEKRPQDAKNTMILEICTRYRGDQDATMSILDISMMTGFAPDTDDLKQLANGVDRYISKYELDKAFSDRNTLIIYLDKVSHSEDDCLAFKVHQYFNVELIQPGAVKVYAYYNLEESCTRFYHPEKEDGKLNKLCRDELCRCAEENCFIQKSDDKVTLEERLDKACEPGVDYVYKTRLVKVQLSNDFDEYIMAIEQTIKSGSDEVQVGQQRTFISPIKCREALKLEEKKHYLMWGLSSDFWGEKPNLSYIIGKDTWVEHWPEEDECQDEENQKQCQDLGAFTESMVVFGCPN

B1: plasma-derived human complement factor H (natural protein)
chain: EDCNELPPRRNTEILTGSWSDQTYPEGTQAIYKCRPGYRSLGNVIMVCRKGEWVALNPLRKCQKRPCGHPGDTPFGTFTLTGGNVFEYGVKAVYTCNEGYQLLGEINYRECDTDGWTNDIPICEVVKCLPVTAPENGKIVSSAMEPDREYHFGQAVRFVCNSGYKIEGDEEMHCSDDGFWSKEKPKCVEISCKSPDVINGSPISQKIIYKENERFQYKCNMGYEYSERGDAVCTESGWRPLPSCEEKSCDNPYIPNGDYSPLRIKHRTGDEITYQCRNGFYPATRGNTAKCTSTGWIPAPRCTLKPCDYPDIKHGGLYHENMRRPYFPVAVGKYYSYYCDEHFETPSGSYWDHIHCTQDGWSPAVPCLRKCYFPYLENGYNQNYGRKFVQGKSIDVACHPGYALPKAQTTVTCMENGWSPTPRCIRVKTCSKSSIDIENGFISESQYTYALKEKAKYQCKLGYVTADGETSGSITCGKDGWSAQPTCIKSCDIPVFMNARTKNDFTWFKLNDTLDYECHDGYESNTGSTTGSIVCGYNGWSDLPICYERECELPKIDVHLVPDRKKDQYKVGEVLKFSCKPGFTIVGPNSVQCYHFGLSPDLPICKEQVQSCGPPPELLNGNVKEKTKEEYGHSEVVEYYCNPRFLMKGPNKIQCVDGEWTTLPVCIVEESTCGDIPELEHGWAQLSSPPYYYGDSVEFNCSESFTMIGHRSITCIHGVWTQLPQCVAIDKLKKCKSSNLIILEEHLKNKKEFDHNSNIRYRCRGKEGWIHTVCINGRWDPEVNCSMAQIQLCPPPPQIPNSHNMTTTLNYRDGEKVSVLCQENYLIQEGEEITCKDGRWQSIPLCVEKIPCSQPPQIEHGTINSSRSSQESYAHGTKLSYTCEGGFRISEENETTCYMGKWSSPPQCEGLPCKSPPEISHGVVAHMSDSYQYGEEVTYKCFEGFGIDGPAIAKCLGEKWSHPPSCIKTDCLSLPSFENAIPMGEKKDVYKAGEQVTYTCATYYKMDGASNVTCINSRWTGRPTCRDTSCVNPPTVQNAYIVSRQMSKYPSGERVRYQCRSPYEMFGDEEVMCLNGNWTEPPQCKDSTGKCGPPPPIDNGDITSFPLSVYAPASSVEYQCQNLYQLEGNKRITCRNGQWSEPPKCLHPCVISREIMENYNIALRWTAKQKLYSRTGESVEFVCKRGYRLSSRSHTLRTTCWDGKLEYPTCAKR
notes: complement factor H (FH), human, 20 CCP modules, plasma-derived; Glycosylated plasma protein; monomer of 155 kDa by SEC-MALS; also called FH; plasma-purified human FH; source: bought: Complement Technologies, plasma-derived, used without further purification
B1 had a Kd of 490 nM.

B2: recombinant human FH with a wild-type sequence (natural protein)
chain: EDCNELPPRRNTEILTGSWSDQTYPEGTQAIYKCRPGYRSLGNVIMVCRKGEWVALNPLRKCQKRPCGHPGDTPFGTFTLTGGNVFEYGVKAVYTCNEGYQLLGEINYRECDTDGWTNDIPICEVVKCLPVTAPENGKIVSSAMEPDREYHFGQAVRFVCNSGYKIEGDEEMHCSDDGFWSKEKPKCVEISCKSPDVINGSPISQKIIYKENERFQYKCNMGYEYSERGDAVCTESGWRPLPSCEEKSCDNPYIPNGDYSPLRIKHRTGDEITYQCRNGFYPATRGNTAKCTSTGWIPAPRCTLKPCDYPDIKHGGLYHENMRRPYFPVAVGKYYSYYCDEHFETPSGSYWDHIHCTQDGWSPAVPCLRKCYFPYLENGYNQNYGRKFVQGKSIDVACHPGYALPKAQTTVTCMENGWSPTPRCIRVKTCSKSSIDIENGFISESQYTYALKEKAKYQCKLGYVTADGETSGSITCGKDGWSAQPTCIKSCDIPVFMNARTKNDFTWFKLNDTLDYECHDGYESNTGSTTGSIVCGYNGWSDLPICYERECELPKIDVHLVPDRKKDQYKVGEVLKFSCKPGFTIVGPNSVQCYHFGLSPDLPICKEQVQSCGPPPELLNGNVKEKTKEEYGHSEVVEYYCNPRFLMKGPNKIQCVDGEWTTLPVCIVEESTCGDIPELEHGWAQLSSPPYYYGDSVEFNCSESFTMIGHRSITCIHGVWTQLPQCVAIDKLKKCKSSNLIILEEHLKNKKEFDHNSNIRYRCRGKEGWIHTVCINGRWDPEVNCSMAQIQLCPPPPQIPNSHNMTTTLNYRDGEKVSVLCQENYLIQEGEEITCKDGRWQSIPLCVEKIPCSQPPQIEHGTINSSRSSQESYAHGTKLSYTCEGGFRISEENETTCYMGKWSSPPQCEGLPCKSPPEISHGVVAHMSDSYQYGEEVTYKCFEGFGIDGPAIAKCLGEKWSHPPSCIKTDCLSLPSFENAIPMGEKKDVYKAGEQVTYTCATYYKMDGASNVTCINSRWTGRPTCRDTSCVNPPTVQNAYIVSRQMSKYPSGERVRYQCRSPYEMFGDEEVMCLNGNWTEPPQCKDSTGKCGPPPPIDNGDITSFPLSVYAPASSVEYQCQNLYQLEGNKRITCRNGQWSEPPKCLHPCVISREIMENYNIALRWTAKQKLYSRTGESVEFVCKRGYRLSSRSHTLRTTCWDGKLEYPTCAKR
notes: Secreted from P. pastoris, so the native signal peptide is probably absent (surmise); also called rFH; recombinant wild-type FH; source: Pichia pastoris (fermentor), purified after enzymatic deglycosylation
B2 registered a Kd of 600 nM. The Kd values of the last two molecules are within 1.5-fold of each other.

B3: recombinant FH(D1119G) (natural protein)
chain: EDCNELPPRRNTEILTGSWSDQTYPEGTQAIYKCRPGYRSLGNVIMVCRKGEWVALNPLRKCQKRPCGHPGDTPFGTFTLTGGNVFEYGVKAVYTCNEGYQLLGEINYRECDTDGWTNDIPICEVVKCLPVTAPENGKIVSSAMEPDREYHFGQAVRFVCNSGYKIEGDEEMHCSDDGFWSKEKPKCVEISCKSPDVINGSPISQKIIYKENERFQYKCNMGYEYSERGDAVCTESGWRPLPSCEEKSCDNPYIPNGDYSPLRIKHRTGDEITYQCRNGFYPATRGNTAKCTSTGWIPAPRCTLKPCDYPDIKHGGLYHENMRRPYFPVAVGKYYSYYCDEHFETPSGSYWDHIHCTQDGWSPAVPCLRKCYFPYLENGYNQNYGRKFVQGKSIDVACHPGYALPKAQTTVTCMENGWSPTPRCIRVKTCSKSSIDIENGFISESQYTYALKEKAKYQCKLGYVTADGETSGSITCGKDGWSAQPTCIKSCDIPVFMNARTKNDFTWFKLNDTLDYECHDGYESNTGSTTGSIVCGYNGWSDLPICYERECELPKIDVHLVPDRKKDQYKVGEVLKFSCKPGFTIVGPNSVQCYHFGLSPDLPICKEQVQSCGPPPELLNGNVKEKTKEEYGHSEVVEYYCNPRFLMKGPNKIQCVDGEWTTLPVCIVEESTCGDIPELEHGWAQLSSPPYYYGDSVEFNCSESFTMIGHRSITCIHGVWTQLPQCVAIDKLKKCKSSNLIILEEHLKNKKEFDHNSNIRYRCRGKEGWIHTVCINGRWDPEVNCSMAQIQLCPPPPQIPNSHNMTTTLNYRDGEKVSVLCQENYLIQEGEEITCKDGRWQSIPLCVEKIPCSQPPQIEHGTINSSRSSQESYAHGTKLSYTCEGGFRISEENETTCYMGKWSSPPQCEGLPCKSPPEISHGVVAHMSDSYQYGEEVTYKCFEGFGIDGPAIAKCLGEKWSHPPSCIKTDCLSLPSFENAIPMGEKKDVYKAGEQVTYTCATYYKMDGASNVTCINSRWTGRPTCRDTSCVNPPTVQNAYIVSRQMSKYPSGERVRYQCRSPYEMFGDEEVMCLNGNWTEPPQCKDSTGKCGPPPPIDNGGITSFPLSVYAPASSVEYQCQNLYQLEGNKRITCRNGQWSEPPKCLHPCVISREIMENYNIALRWTAKQKLYSRTGESVEFVCKRGYRLSSRSHTLRTTCWDGKLEYPTCAKR
notes: complement factor H, human, full-length, with the aHUS-linked substitution D1119G (CCP 19); Expression-optimized synthetic DNA; Secreted from P. pastoris, so the native signal peptide is probably absent (surmise); also called rFH(D1119G); rFH; source: Pichia pastoris (vector pPICZαB), purified as described for rFH
B3 gave a Kd of 540 nM.

Usually Kd stands for the equilibrium constant for the complex coming apart. The low end stands for higher affinity, the high end for lower affinity.
